These results are taken from patent US20200123214A1 (published 2020).

The target of assay [1] is T1, recombinant human CSF1 protein (human) (UniProt P09603).
T1 sequence (looked up): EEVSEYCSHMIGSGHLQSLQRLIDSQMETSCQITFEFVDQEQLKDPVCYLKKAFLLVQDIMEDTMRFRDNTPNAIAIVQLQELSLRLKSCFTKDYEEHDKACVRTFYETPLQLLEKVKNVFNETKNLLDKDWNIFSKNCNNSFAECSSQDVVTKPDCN
Briefly: SPR, BioRad ProteOn XPR 360. Background: Surface plasmon resonance follows binding to a sensor surface in real time, without labels.

For assay [2], the target named is T2, murine CD40 overexpressed on CHO-K1 cells (CHOK1/CD40) (murine, UniProt P27512 20-289).
T2 construct: whole, on cells; also called mCD40
T2 sequence (looked up): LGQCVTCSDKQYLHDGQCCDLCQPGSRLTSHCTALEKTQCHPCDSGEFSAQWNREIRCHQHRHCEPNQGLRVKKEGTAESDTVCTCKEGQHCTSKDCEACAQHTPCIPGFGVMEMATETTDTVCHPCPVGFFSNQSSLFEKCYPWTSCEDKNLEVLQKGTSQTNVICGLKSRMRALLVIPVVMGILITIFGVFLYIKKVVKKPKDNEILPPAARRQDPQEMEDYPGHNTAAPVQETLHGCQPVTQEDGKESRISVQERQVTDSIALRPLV
Briefly: flow cytometry on CHOK1/CD40 cells. As for the experimental part: For cell binding assays, immortalized cell lines were engineered to stably express CD40 (CHOK1/CD40). Increasing concentrations of the murine CSF1R-Fc-CD40L chimeric protein were incubated with the over-expressing (CHOK1/CD40) cell line for 2 hours. Cells were collected, washed, and stained with antibodies for the detection of chimeric protein binding by flow cytometry.
As a negative control, there was no detectable binding to the parental (non-CD40 expressing) CHOK1 cell line.
On the technique in general: In flow cytometry, cells or beads pass a laser one at a time.

Take CSF1R-Fc (Fc fusion): in assay [1], the dissociation constant (Kd) stood at 0.275 nM, the koff was found to be 0.000335 s⁻¹ and the kon is 1.22e+06 M⁻¹ s⁻¹.

B1: murine CSF1R-Fc-CD40L chimeric protein (Fc fusion, UniProt P09581 20-515, looked up)
chain: APVIEPSGPELVVEPGETVTLRCVSNGSVEWDGPISPYWTLDPESPGSTLTTRNATFKNTGTYRCTELEDPMAGSTTIHLYVKDPAHSWNLLAQEVTVVEGQEAVLPCLITDPALKDSVSLMREGGRQVLRKTVYFFSPWRGFIIRKAKVLDSNTYVCKTMVNGRESTSTGIWLKVNRVHPEPPQIKLEPSKLVRIRGEAAQIVCSATNAEVGFNVILKRGDTKLEIPLNSDFQDNYYKKVRALSLNAVDFQDAGIYSCVASNDVGTRTATMNFQVVESAYLNLTSEQSLLQEVSVGDSLILTVHADAYPSIQHYNWTYLGPFFEDQRKLEFITQRAIYRYTFKLFLNRVKASEAGQYFLMAQNKAGWNNLTFELTLRYPPEVSVTWMPVNGSDVLFCDVSGYPQPSVTWMECRGHTDRCDEAQALQVWNDTHPEVLSQKPFDKVIIQSQLPIGTLKHNMTYFCKTHNSVGNSSQYFRAVSLGQSKQLPDESLFTPHRRLDKVEEEVNLHEDFVFIKKLKRCNKGEGSLSLLNCEEMRRQFEDLVKDITLNKEEKKENSFEMQRGDEDPQIAAHVVSEANSNAASVLQWAKKGYYTMKSNLVMLENGKQLTVKREGLYYVYTQVTFCSNREPSSQRPFIVGLWLKPSSGSERILLKAANTHSSSQLCEQQSVHLGGVFELQAGASVFVNVTEASQVIHRVGFSSFGLLKL
notes: constructed 'as described above in the Detailed Description and in U.S. 62/464,002'; also called mCSF1R-Fc-CD40L; mCD115-Fc-CD40L; not shown: Fc linker of the murine chimera
B1: the EC50 in assay [2] was found to be 91.1 nM.

What is called Kd is a measure of binding affinity in units of concentration. As a reminder, the koff is a measure of how fast the partners let go of each other. By kon is commonly meant the rate constant with which the complex forms. As usually defined, the EC50 is the concentration needed to bring the measured effect to its halfway point. Higher therefore signals lower potency in that assay.
